Measurements reported in article PMC4263767, “IL-28B is a Key Regulator of B- and T-Cell Vaccine Responses against Influenza” (PLoS Pathogens, 2014).
Like-named read-outs stand apart in the source and are kept apart here.

Assays:
Type in all cases: cell-based, human
[1] = tested on: PBMCs from transplant recipients; details: IL-28B 100 ng/mL, 2 h before 5-day H1N1; 38 transplant recipients; p = 0.004
[2] = tested on: PBMCs from transplant recipients; test: Cytokine release by H1N1-stimulated transplant recipient PBMCs, overnight (luminex)
[3] = tested on: PBMCs from healthy volunteers; details: 0 ng/mL: 19.2%, p = 0.92
Procedure: Prior to surface staining, LIVE/DEAD staining was performed (near-IR; Invitrogen). Markers for identifying T-cell subsets were CD3, and CD4. Intracellular cytokine staining was performed according to previously published protocols after overnight stimulation. IL-4 was used as a key representative for Th2 cytokine production. Background (unstimulated samples) were subtracted from stimulated results. All reagents including perm and fixation buffers and antibodies were from eBioscience. Isotype controls have previously been used to establish the assays.

[4] = IL-28B 100 ng/mL, overnight H1N1, p=0.04
[5] = IL-28B 100 ng/mL, overnight H1N1, p=0.39
[6] = IL-28B 100 ng/mL, overnight H1N1, p=1.00
[7] = IL-28B 100 ng/mL, overnight H1N1, transplant PBMCs, median (IQR)

B1: IL-28B: recombinant IL-28B, a member of the interferon (IFN)-λ family (protein)
chain: VPVARLRGALPDARGCHIAQFKSLSPQELQAFKRAKDALEESLLLKDCKCRSRLFPRTWDLRQLQVRERPVALEAELALTLKVLEATADTDPALGDVLDQPLHTLHHILSQLRACIQPQPTAGPRTRGRLHHWLHRLQEAPKKESPGCLEASVTFNLFRLLTRDLNCVASGDLCV
modifications: left off: His tag, end not stated, kept
notes: recombinant IL-28B, a member of the interferon (IFN)-λ family
H1N1-induced IgG production with IL-28B (in words) [1]: significantly decreased
H1N1-stimulated Th1-cytokine expression (IFN-γ, IL6) ([2]; IL-28B 100 ng/mL, 2 h before overnight H1N1, n = 36): significant increase
IFN-α, ratio IL-28B/no IL-28B ([2]; IL-28B 100 ng/mL, overnight H1N1, p=0.001): 2.9
IFN-γ, ratio IL-28B/no IL-28B [2, 4]: 2.1
MIP-1α, ratio IL-28B/no IL-28B [2, 4]: 1.8
sCD40-L, ratio IL-28B/no IL-28B [2, 4]: 1.0
IL-6, ratio IL-28B/no IL-28B ([2]; IL-28B 100 ng/mL, overnight H1N1, p=0.05): 2.4
IP-10, ratio IL-28B/no IL-28B ([2]; IL-28B 100 ng/mL, overnight H1N1, p=0.14): 1.0
MCP-3, ratio IL-28B/no IL-28B ([2]; IL-28B 100 ng/mL, overnight H1N1, p=0.33): 1.2
Fractalkine, ratio IL-28B/no IL-28B [2, 5]: 5.0
TNF-α, ratio IL-28B/no IL-28B [2, 5]: 1.9
IL-1β, ratio IL-28B/no IL-28B ([2]; IL-28B 100 ng/mL, overnight H1N1, p=0.44): 1.0
MCP-1, ratio IL-28B/no IL-28B ([2]; IL-28B 100 ng/mL, overnight H1N1, p=0.61): 1.0
IL-2, ratio IL-28B/no IL-28B ([2]; IL-28B 100 ng/mL, overnight H1N1, p=0.86): 1.1
IL-4, ratio IL-28B/no IL-28B ([2]; IL-28B 100 ng/mL, overnight H1N1, p=0.92): 1.0
GRO, ratio IL-28B/no IL-28B [2, 6]: 1.0
IL-5, ratio IL-28B/no IL-28B [2, 6]: 1.0
IL-9, ratio IL-28B/no IL-28B [2, 6]: 1.0
IL-13, ratio IL-28B/no IL-28B [2, 6]: 1.0
Fractalkine [2, 7]: 16.1 (3.2-60.2) pg/mL
GRO [2, 7]: 3.2 (3.2-3.2) pg/mL
IFN-α [2, 7]: 1290.8 (502.4-1969.9) pg/mL
IFN-γ [2, 7]: 48.0 (13.9-133.3) pg/mL
IL-1β [2, 7]: 0.6 (0.6-4.0) pg/mL
IL-2 [2, 7]: 61.5 (6.0-168.9) pg/mL
IL-4 [2, 7]: 0.6 (0.6-1.5) pg/mL
IL-5 [2, 7]: 0.6 (0.6-0.6) pg/mL
IL-6 [2, 7]: 104.0 (15.0-156.6) pg/mL
IL-9 [2, 7]: 0.6 (0.6-0.6) pg/mL
IL-13 [2, 7]: 0.6 (0.6-0.9) pg/mL
IP-10 [2, 7]: 8336.4 (7362.5-9289.1) pg/mL
MCP-1 [2, 7]: 0.5 (0.5-827.4) pg/mL
MCP-3 [2, 7]: 760.9 (398.3-2500.5) pg/mL
MIP-1α [2, 7]: 321.4 (173.7-485.3) pg/mL
TNF-α [2, 7]: 23.2 (0.7-44.8) pg/mL
sCD40-L [2, 7]: 0.6 (0.6-77.7) pg/mL
Th1-cytokines (in words, abstract) ([2]; in vitro): increased Th1-cytokines (e.g. IFN-γ)
median % dead cells ([3]; IL-28B 1 ng/mL): 19.9%
median % dead cells ([3]; IL-28B 10 ng/mL): 23.6%
median % dead cells ([3]; IL-28B 100 ng/mL): 22.6%
